Results taken from the nanobody polyreactivity screen of Harvey et al. (2022).

assay: yeast display, Sf9 membrane polyspecificity reagent, FACS + sequencing; frameworks hold sequencing errors
In short: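 Sorting gates, low and high (top ~1%), were placed on anti-HA fluorescence to track expression and on streptavidin fluorescence to track reagent binding. A clone's polyreactivity label is taken from the gate it came out of. The reagent was 10% biotinylated, detergent-solubilized Sf9 membrane, applied for 1 hour at 4 °C to galactose-induced yeast display cells.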

Sequence | polyreactivity (PSR sort gate)
QVQLVESGGGLVQAGGSLRLTCAASGRIFTGNSMGWYRQAPGQERELVAAITRRGGNTYYADSVKGRFTISRDNAKNTVYLQMNSLKPEDTAVYSCARDRPGDYAGYDYWGQGTQVTVSS | low polyreactivity
QVQLVESGGGLVQAGGSLRLTCAASGRIFTHNAMGWYRQAPGKVRELVAAITSGGRTTYADSVKGRFTISRDNAKNTVYLQMNSLKPEDSAVYDCNADTGLGSLDFDKRDYWGQGTQVTVSS | low polyreactivity
QVQLVESGGGLVQAGGSLRLTCAASGRIFWSYAMGWYRQAPGKERELVARITTGSSTNYADSVKGRFTISRDNAKNTVYLQMNSLKPEDTAVYYCAADVSNYYFAYYYWGQGTQVTVSS | low polyreactivity
QVQLVESGGGLVQAGGSLRLTCAASGRIFYRYAMGWYRQAPWKERELVAAIRYSGGRTYYADSVKGRFTISRDNAKNTVYLQMNSLQPEDTAVYYCAADGQWYYAPFRGGDYENDYWGQGTQVTVPS | low polyreactivity
QVQLVESGGGLVQAGGSLRLTCAASGRIIGFNAMGWYRQAPGKERELVASIRTTGGTTYYADSVKGRFTISSDNAKNTVYLQMNSLKPEDTAVYYCAARRYPPRMDYWGQGTQVTVSS | high polyreactivity
QVQLVESGGGLVQAGGSLRLTCAASGRTFRLYAMGWYRQAPGKERELVAAITRGGRTNYADSVKGRFTISRDNAKNTVYLQMNSLKPEDTAVYYCAARYVDRHTDYYYWGQGTQVTVSS | low polyreactivity
QVQLVESGGGLVQAGGSLRLTCAASGRTFVENAMGWYRPATGKERELVAAITYSGGGTYYADSVKGRFTISRDNAKNTVYLQMNSVKPEDTAVYDCAATIPYSLDGYDYWGQGTQVTVSS | low polyreactivity
QVQLVESGGGLVQAGGSLRLTCAASGRTFYWNVMGWYRQAPGKERELVAITTSGGSTYYADAVKGRFTISRDNAKNTVYLQMNSLKPEDTAVYYCAAQWRSYYDQYGYDYWGQGTQVTVSS | low polyreactivity
QVQLVESGGGLVQAGGSLRLTCAASGRTLYRYAMGWYRQAPGKERELVAAITNGGSTKYADSVKGRFTISRDNAKNTVYLQMNSLKPEDTAVYYCYAVVNFILLRIYYGQLYNYWGQGTQVTVSS | low polyreactivity
QVQLVESGGGLVQAGGSLRLTCAASGSIFDRNAMGWYRQAPGTERELVAAITYRSGGTYYADSVKGRFTISRDNAKNTVYLQMNSLKPEDTSVYYCNKGYRRYKGYDYWGQGTQVTVSS | high polyreactivity
QVQLVESGGGLVQAGGSLRLTCAASGSIFEGNAMGWYRQAPGKESELVASISGDGSTNYADSVKGRFTISRDNAKNSVYLQMNSLKPEDTAVYYCNADTISEPGFHMDYWGQGNQVTVSS | low polyreactivity
QVQLVESGGGLVQAGGSLRLTCAASGSIFPGYAMGWYRQAPGKDRELVATITASGGSTYYADSVKGRFTISRDNAKNTVFLQMISLKPEDTAVYDCAKDRYWYFRRRGQYDYWGQGTQVTVSS | high polyreactivity
QVQLVESGGGLVQAGGSLRLTCAASGSIFQPNMGWNRHAPGKERELVASITTGTTKYADSVKGRFTISRDNAKNTVYLQMNSLKPEDTAVYYCAADLQATVYLIFGYWGQGTQVTVSS | low polyreactivity
QVQLVESGGGLVQAGGSLRLTCAASGSIFRVYAMGWYRQAPGKERELVAVISIAGRTNYADSVKGRFTISRDNAKNTVYLQMNSLKAEDTAVYYCNAGGVGVATGYDYWGQGTQVTVSS | low polyreactivity
QVQLVESGGGLVQAGGSLRLTCAASGSIFTFYAMGWYRQAPGKERELVADISFSDVSTYYADSVKGRFTISRDNAKNTVYLQMNSLKPEDTAVYYCAARPYVVSQYFDGVEFYYWGQGTQVTVSS | low polyreactivity
QVQLVESGGGLVQAGGSLRLTCAASGSIFVSYARGWYREAPGKERELVAAITSAGTPYYADSVKGRFTISRDNAKNTVYLQMNSLKPDDTAVYYCNTDASLKRTRVSPETEYGYWGQGTQVTVSS | low polyreactivity
QVQLVESGGGLVQAGGSLRLTCAASGSIFWYNAMGWYRQAPGKERELVAAIKWSGGSTFYADSVKGGFTISRDTAKNNVYLQMNSLKPEDTAVYYCNAPPLYRDEFWGQGTQVTVSS | high polyreactivity
QVQLVESGGGLVQAGGSLRLTCAASGSTFFYYAMVWYIHAPGKERELVAAITVRGTSTYYADSVKGRFTISRDIAKNTVYLQMNSLKPEDTAVYYCNTLQPYLYDYWGQGTQVTVSS | high polyreactivity
QVQLVESGGGLVQAGGSLRLTCAASGSTFGDYDMGWYRQAPGKERELVAAISNGGSTYYADSVKGRFTISRDNAKNTVYFQMNSLKPEDTAVYYCNADNVEIRSTYEYGRYLYGYWGQGTQVTVSS | low polyreactivity
QVQLVESGGGLVQAGGSLRLTCAASGSTFRKNVMGWYRQAPGKERELVARISNSGGSTNYADSVKGRFTISRDNAKITVYLQINSLKPADTAVYNCNARKYTNHATYDYWGQGTQVTVSS | high polyreactivity
QVQLVESGGGLVQAGGSLRLTCAASGSTFVINVMGWYRQAPGKERELVAAISNGGRTYADSVKGRFTISRDNAKNTVYLQMNSLKPEDTAVYYCAADVSFTQSDGRLAEYGYWGQGTQVTVSS | low polyreactivity
QVQLVESGGGLVQAGGSLRLTCAASGSTFWDNAMGWYRQAPGKERELVAAITAIGGTTYYADSVKGRFTISRDNAKNTVYLQMKSLKPEDTAVYYCAAVWSRFLISYSTGWWFEYWGQGTQVTVSS | low polyreactivity

Sequence | polyreactivity (PSR sort gate)
QVQLVESGGGLVQAGGSLRLTCAASGSTFYHNAMGWYRQAPGKERELVAAITTSGGSTYYADSVKGRFTISRDNAKNTVYLQMNSLKPVDTAVYYCNVYRPYLAPYDYWGQGTQVTVSS | low polyreactivity
QVQLVESGGGLVQAGGSLRLTCAASGSTLDYYAMGWYRQAPGKERELVAAITQSGASTYYADSVKGRFTISRDNAKNPVYLQMNSLKPEDTAVYYCAAEDYTIYGGEYDYWGQGTQVTVSS | low polyreactivity
QVQLVESGGGLVQAGGSLRLTCAASGSTLKSYAMGWYRQAPGKERELVAAITRSGARTYYADSVQGRFTISRDNAKNTVYFQMNSLKPEDTAVYYCNRVGYQYGSDQEDDYWGQGTQVTVSS | high polyreactivity
QVQLVESGGGLVQAGGSLRLTCAASGSTLRYYAMGWYRQAPGKERELVAAISTGGSTYYADSVKGRFTISRDNAKITVYLQINSLKPEDTAVYYCAAEKKTKTYRYDYWGQGTQVTVSS | low polyreactivity
QVQLVESGGGLVQAGGSLRLTCAASGYTFLHYAMGWYRQPPGKERELVAAITHSGTRTYYADSVKGRFTISRDNAKNTVYLQMNSLKPEDTAVHYCAARGYGKYDYWGQGTQVTVSS | high polyreactivity
QVQLVESGGGLVQAGGSLRLTCAASGYTLGYNAMGWYRKAPGKEMELVAAITIDGSTTYADSVKGRFTISRDNAKNTVYLLMNSLKPEDTAVYYCNAEGFTSDPYDSDYWGKGTQVTVSS | low polyreactivity
QVQLVESGGGLVQAGGSLRLTCAASVFTWSYAMVWDRHATGKERELVATISDGVSTNYSDSVKGRFTISRDNAKNSVYLQMNSLKPEDTAVYYCAVRVSGPRGYDYEYWGQGTQVTVSS | low polyreactivity
QVQLVESGGGLVQAGGSLRLTCAAYGRIFRYYPMGWYRQAPGKERDLVAAINWRGTSTSYADSVKGRFTISRDIAKNTVYLQMNSLKPEETAVYYCARVAWSESDWQKMDYWGQGTQVTVSS | high polyreactivity
QVQLVESGGGLVQAGGSLRLTCADSGFIFYRYAMVWYRQAPGKERELVAAISTRGGSTFYADSVKGRFTISRDNAKNTVYLQMNSLKPEDTAVYYCATGPLRAYDYWGQGTQVTVSS | high polyreactivity
QVQLVESGGGLVQAGGSLRLTCAPSGFIFTPNAIGWYRQAPGKERELVAAISRGGGSTYYADSVKGRFTISRDNAKNTVYLQMNSLKPQDTAVYYCNARSKNGGTTFGYWGEGTQVTVSS | high polyreactivity
QVQLVESGGGLVQAGGSLRLTCDASGRTFYQNTMGWYRQAPGKERELVAAISYRVGRTYYADSVKGRFSISSDNAKNTVYLQMNSLKPEDTAVYYCAAGVWWWTIPYEYWGQGSQVTVSS | high polyreactivity
QVQLVESGGGLVQAGGSLRLTCPASGTIFWNYAMGWYRQAPGKERELVAAISFSGGSTYYADSVKGRFTISRDNAKNTVYLQMNSLKPEDTAVYYCNADYSYVGEYDYWGQGTQVTLSS | low polyreactivity
QVQLVESGGGLVQAGGSLRLTCSASGSTFYYYAMGWYRQAPGKERELVAAITISGGSTYYADSVKGRFTISRDKAKNTVYLQLNSLKPEDTAVYYCNVDDRETRDDYWGQGTQVTVSS | low polyreactivity
QVQLVESGGGLVQAGGSLRLTGAASGRIFRSYAMGWYRQAPGKERELVASISGSTTYYADSVKGRFTISRDNAKNTVYLQMNSLKPEDTAVYYCAVKYDAWGYGYRHFDYWGQGTQVTVSS | low polyreactivity
QVQLVESGGGLVQAGGSLRLTSAASGSIFRYYTMGWYRHAPRKERELVAAISRNGGSTYYADSVKGRFTISRDNAKNSVYLQMNSLKPVDTAVYYCNADGGDWFGYVGMDYWGQGTQVTVSS | high polyreactivity
QVQLVESGGGLVQAGGSLRLTSAASVSTFYNYAMVWYRQAPGKERELVASMTWNGGSTYYADSVKGRFTISRDNAKNTVDLQMTSLKPEDTAGSYCAAEYRDQYPTYPYYRPGYDYWGQGTQVTVSS | low polyreactivity
QVQLVESGGGLVQAGGSLRLTSAGSGFTFTIYAMGWYRQAPGKERELVATISGRAGRTYYADSVKGRFTISRDNAKNTVYLQMNSLKPEDTAVYYCNAGQWRYPGLYYYWGQGSQVTVSS | high polyreactivity
QVQLVESGGGLVQAGGSLRLTSDASGFTFRSNAMGWYRQAPGKERELVAAITSRGGSTYYADSVKGRFTISRDYAKNTVYLQMNSLKPEDTAVYYCAADGRSRKFDYWGQGTQVTVSS | high polyreactivity
QVQLVESGGGLVQAGGSLRSSCASSGSIFDGNTMGWYRQAPGKERELVAAISYSGGSTYYADSVKGRFTISRDNAKNTVYLQMNSLKPEDTAVYYCAAEWYGYQEDDYWGQGTQVTVSS | low polyreactivity
QVQLVESGGGLVQAGGSLRVCCAASGRIFGNYAMGWYRQAPGKDRELVAAISGGGSTYYADSVKGRFTISRDNAKNTVYVQMNSLKPEDTAVYYCAAKPTYRGYGYGSWGQGTQVTVSS | low polyreactivity
QVQLVESGGGLVQAGGSLRVSCAASGFIFSYNAMGWYRQEPGKERELVAAMSSGGGSTYYADSVKGRFTISRDNAKNTVYLQMNSLKPEDTAVSYCAARVAYTFGYWGQGTQVTVSS | high polyreactivity
